Laboratory results taken from patent US20020091083.

Biological target: YB-1 (expressed from YB-1/RSV) (Homo sapiens) (UniProt P67809)
Experiment: cell_activity
Settings: human glioblastoma cells

Substance	activity (relative CAT activity) (no repression, empty vector pRc/RSV = 1.1)	activity (relative CAT activity) (repression, empty vector pRc/RSV = 1.0)
COL1A2 promoter -161 to +57 CAT non-binding reporter	1	
COL1A2 promoter -161 to +57 CAT binding reporter		0.6
